Measured values reported in patent US20110158954A1, “METHOD FOR PRODUCING GAMMA DELTA T CELL POPULATION” (priority 2007, published 2011).

Assays:
Daudi cells = assay: Cytotoxic activity of cultured γδ T cell population, Calcein-AM release; format: cell-based, human; conditions: γδ T cells expanded 14 days with pamidronate on immobilized FN fragment; target cells Daudi; E/T 30; 4 hours
Experimental: (§1) The cytotoxic activity was determined for the cells on the fourteenth day from the initiation of culture prepared in Example 3-(1). The cytotoxic activity was evaluated by a method for assaying cytotoxic activity using Calcein-AM [Lichtenfels R. et al., J. Immunol. Methods 172(2), 227-239 (1994)]. […]
(§2) The cells on the fourteenth day from the initiation of culture prepared in Example 3-(1) were diluted with an RPMI 1640 medium containing 5% (v/v) human AB serum, 0.1 mM NEAA mixture, 1 mM sodium pyruvate (all manufactured by Cambrex), 2 mM L-glutamine, 10 μg/mL streptomycin sulfate (hereinafter referred to as “5HRPMI”) as effector cells, so as to have a concentration of 3×10^6 cells/mL. […] Upon the addition, the ratio of the effector cells (E) to the Calcein-labeled target cells (T) is expressed as an E/T ratio, and the measurements were made at an E/T ratio of 30. […] Thereafter, 100 μL of the culture supernatant was collected from each well, and the amount of Calcein released into the culture supernatant was determined with a fluorescence plate reader (Mithras LB 940, manufactured by BERTHOLD TECHNOLOGIES) (excited at 485 nm/measured at 535 nm). The “cytotoxic activity (%)” was calculated in accordance with the following formula.
(§3) Cytotoxic Activity (%)={(Measured Value in Each Well−Minimum Released Amount)/(Maximum Released Amount−Minimum Released Amount)}×100 […]

K562 cells = assay: as above; format: cell-based, human; conditions: γδ T cells expanded 14 days with pamidronate on immobilized FN fragment; target cells K526 (so in the source); E/T 30; 4 hours
Experimental: as §1, §2, §3

γδ T cells = assay: Expansion of γδ T cell population using pamidronate, CH-296 plate (Example 3); format: cell-based; conditions: human PBMCs; IMDM; pamidronate 5 μM; immobilized CH-296; day 14
Experimental: The expansion was carried out in the same manner as Example 2, except that a plate immobilized with CH-296 prepared in Example 1-(2) was used.
The ratio of the γδ T cells was analyzed according to flow cytometry for PBMCs prepared in Example 1-(1) and the cells on the fourteenth day from the initiation of culture prepared in Example 3-(1), in the same manner as in Example 1-(4). As a result, the ratio of γδ T cells was 8.9% for the PBMCs, and the ratio was from 96.0 to 96.9% for the cells on the fourteenth day from the initiation of culture.
The number of live cells was counted according to trypan blue staining method for the cells on the fourteenth day from the initiation of culture prepared in Example 3-(1). The expansion fold of γδ T cells was calculated in comparison of the counted number with the number of γδ T cells at the initiation of culture, in the same manner as in Example 1-(5).

**Q.** With “CH-296: polypeptide comprising a cell binding domain, a heparin binding domain and a CS-1 domain of fibronectin (SEQ ID NO: 13)” as the substance, how does the “Cytotoxic Activity (%)” value (Daudi cells) read?
**A.** 33.23%

**Q.** What about the “Cytotoxic Activity (%)” value (K562 cells) of the same substance?
**A.** 25.45%

**Q.** What about the “expansion fold of γδ T cells compared to control group” value (γδ T cells) of the same substance?
**A.** high expansion fold of γδ T cells during the culture, as compared to that of the control group
